# Measurements reported in the supplement of paper PMC10567573.
# B1: ZNF193 (parent)
# chain: QCIECGKSFNRHCNLIRHQKIHTV
# Variants of: B1
# Experiment: protein stability index of a GFP-peptide fusion (GPS, HEK-293T) (PSI 1-6); higher = more stable
# Conditions: c terminus: a fixed tail appended
# 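Note: lentivirally expressed fusions sorted by FACS into six bins by GFP to DsRed ratio, PSI derived from sequencing read proportions per bin multiplied by bin number.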
row,Variant,protein stability index
1,QCIECGKSFNRHCNLIRHQKLHTV [I21L],3.48
2,QCIECGKSFNRHCNLIRHQKYHTV [I21Y],3.6
3,QCIECGKSFNRHCNLIRHQKWHTV [I21W],3.55
4,QCIECGKSFNRHCNLIRHQKFHTV [I21F],3.15
5,QCIECGKSFNRHCNLIRHQKGHTV [I21G],3.51
6,QCIECGKSFNRHCNLIRHQKNHTV [I21N],3.52
7,QCIECGKSFNRHCNLIRHQKPHTV [I21P],3.1
8,QCIECGKSFNRHCNLIRHQKAHTV [I21A],4
9,QCIECGKSFNRHCNLIRHQKMHTV [I21M],3.72
10,QCIECGKSFNRHCNLIRHQKDHTV [I21D],3.93
11,QCIECGKSFNRHCNLIRHQKSHTV [I21S],4
12,QCIECGKSFNRHCNLIRHQKRHTV [I21R],3.81
13,QCIECGKSFNRHCNLIRHQKCHTV [I21C],3.85
14,QCIECGKSFNRHCNLIRHQKTHTV [I21T],4.39
15,QCIECGKSFNRHCNLIRHQKVHTV [I21V],3.74
16,QCIECGKSFNRHCNLIRHQKQHTV [I21Q],4.49
17,QCIECGKSFNRHCNLIRHQKHHTV [I21H],3.77
18,QCIECGKSFNRHCNLIRHQKKHTV [I21K],4.25
19,QCIECGKSFNRHCNLIRHQKEHTV [I21E],4.1
20,QCIECGKSFNRHCNLIYHQKIHTV [R17Y],2.52
21,QCIECGKSFNRHCNLIRHQKIHTH [V24H],3.83
22,QCIECGKSFNRHCNLIRHQKIHTD [V24D],3.83
23,QCIECGKSFNRHCNLIRHQKIHTI [V24I],2.8
24,QCIECGKSFNRHCNLIRHQKIHTC [V24C],3.99

row,Variant,protein stability index
1,QCIECGKSFNRHCNLIRHQKIHTS [V24S],4.21
2,QCIECGKSFNRHCNLIRHQKIHTK [V24K],4.68
3,QCIECGKSFNRHCNLIRHQKIHTR [V24R],3.83
4,QCIECGKSFNRHCNLIRHQKIHTN [V24N],4.22
5,QCIECGKSFNRHCNLIRHQKIHTA [V24A],4.26
6,QCIECGKSFNRHCNLIRHQKIHTF [V24F],3.41
7,QCIECGKSFNRHCNLIRHQKIHTM [V24M],4.19
8,QCIECGKSFNRHCNLIRHQKIHTE [V24E],4.36
9,QCIECGKSFNRHCNLIRHQKIHTP [V24P],4.21
10,QCIECGKSFNRHCNLIRHQKIHTQ [V24Q],3.87
11,QCIECGKSFNRHCNLIRHQKIHTT [V24T],3.84
12,QCIECGKSFNRHCNLIRHQKIHTY [V24Y],3.4
13,QCIECGKSFNRHCNLIRHQKIHTL [V24L],3.43
14,QCIECGKSFNRHCNLIRHQKIHTG [V24G],3.56
15,QCIECGKSFNRHCNLIRHQKIHTW [V24W],2.75
16,QCIECGKSFNRHCNLIRHQKIHMV [T23M],3.33
17,QCIECGKSFNRHCNLIRHQKIHPV [T23P],3.23
18,QCIECGKSFNRHCNLIRHQKIHKV [T23K],3.47
19,QCIECGKSFNRHCNLIRHQKIHNV [T23N],4.08
20,QCIECGKSFNRHCNLIRHQKIHLV [T23L],2.7
21,QCIECGKSFNRHCNLIRHQKIHSV [T23S],3.68
22,QCIECGKSFNRHCNLIRHQKIHCV [T23C],3.58
23,QCIECGKSFNRHCNLIRHQKIHEV [T23E],4.38
24,QCIECGKSFNRHCNLIRHQKIHVV [T23V],3.26

row,Variant,protein stability index
1,QCIECGKSFNRHCNLIRHQKIHWV [T23W],2.56
2,QCIECGKSFNRHCNLIRHQKIHYV [T23Y],3.31
3,QCIECGKSFNRHCNLIRHQKIHQV [T23Q],4.09
4,QCIECGKSFNRHCNLIRHQKIHFV [T23F],2.85
5,QCIECGKSFNRHCNLIRHQKIHHV [T23H],3.9
6,QCIECGKSFNRHCNLIRHQKIHGV [T23G],3.31
7,QCIECGKSFNRHCNLIRHQKIHDV [T23D],3.13
8,QCIECGKSFNRHCNLIRHQKIHIV [T23I],2.6
9,QCIECGKSFNRHCNLIRHQKIHRV [T23R],3.91
10,QCIECGKSFNRHCNLIREQKIHTV [H18E],2.33
11,QCIECGKSFNRHCNLIRPQKIHTV [H18P],2.05
12,QCIECGKSFNRHCNLIRTQKIHTV [H18T],1.66
13,QCIECGKSFNRHCNLIRLQKIHTV [H18L],1.71
14,QCIECGKSFNRHCNLIRKQKIHTV [H18K],2.38
15,QCIECGKSFNRHCNLIRAQKIHTV [H18A],2.45
16,QCIECGKSFNRHCNLIRWQKIHTV [H18W],2.21
17,QCIECGKSFNRHCNLIRFQKIHTV [H18F],2.4
18,QCIECGKSFNRHCNLIRGQKIHTV [H18G],2.91
19,QCIECGKSFNRHCNLIRYQKIHTV [H18Y],1.41
20,QCIECGKSFNRHCNLIRSQKIHTV [H18S],2.36
21,QCIECGKSFNRHCNLIRVQKIHTV [H18V],1.45
22,QCIECGKSFNRHCNLIRRQKIHTV [H18R],1.87
23,QCIECGKSFNRHCNLIRCQKIHTV [H18C],2.55
24,QCIECGKSFNRHCNLIRIQKIHTV [H18I],2

row,Variant,protein stability index
1,QCIECGKSFNRHCNLIRMQKIHTV [H18M],1.65
2,QCIECGKSFNRHCNLIRDQKIHTV [H18D],1.97
3,QCIECGKSFNRHCNLIRQQKIHTV [H18Q],2.24
4,QCIECGKSFNRHCNLIRNQKIHTV [H18N],2.31
5,QCIECGKSFNRHCNLIRHQKIGTV [H22G],2.94
6,QCIECGKSFNRHCNLIRHQKICTV [H22C],4.83
7,QCIECGKSFNRHCNLIRHQKILTV [H22L],2.88
8,QCIECGKSFNRHCNLIRHQKIPTV [H22P],2.62
9,QCIECGKSFNRHCNLIRHQKIWTV [H22W],1.74
10,QCIECGKSFNRHCNLIRHQKINTV [H22N],2.78
11,QCIECGKSFNRHCNLIRHQKISTV [H22S],2.45
12,QCIECGKSFNRHCNLIRHQKIVTV [H22V],2.32
13,QCIECGKSFNRHCNLIRHQKIYTV [H22Y],1.56
14,QCIECGKSFNRHCNLIRHQKIETV [H22E],2.63
15,QCIECGKSFNRHCNLIRHQKIITV [H22I],2.25
16,QCIECGKSFNRHCNLIRHQKIATV [H22A],2.76
17,QCIECGKSFNRHCNLIRHQKIKTV [H22K],2.41
18,QCIECGKSFNRHCNLIRHQKIMTV [H22M],2.34
19,QCIECGKSFNRHCNLIRHQKIFTV [H22F],1.63
20,QCIECGKSFNRHCNLIRHQKIRTV [H22R],2.89
21,QCIECGKSFNRHCNLIRHQKIDTV [H22D],2.08
22,QCIECGKSFNRHCNLIRHQKITTV [H22T],2.11
